B1: ZNF649 (parent)
chain: DECEKAYFYMSCLVKHKRIHSREK
B2: CCND1 (parent)
chain: PEAEENKQIIRKHAQTFVALCATD

Variants of: B1
Assay: protein stability index of a GFP-peptide fusion (GPS, HEK-293T) (PSI 1-6); higher = more stable
Conditions: c terminus: a fixed tail appended
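Note: lentivirally expressed fusions sorted by FACS into six bins by GFP to DsRed ratio, PSI derived from sequencing read proportions per bin multiplied by bin number.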

Protein stability index: each site, then its substitutions
E23: Y 2.17; A 3.48; I 2.42; S 2.23; L 2.99; F 2.15; R 3.04; H 2.36; G 2.62; Q 2.99; T 2.48; M 1.8; C 3.15; N 2.38; P 2.1; K 2.7; V 2.2; W 2.23; D 2.81
R18: P 2.48; Y 2.52; F 2.4; G 2.72; T 2.61; K 2.79; W 2.34; L 1.73; V 2.36; C 2.32; Q 2.56; A 2.53; H 2.62; I 2.08; M 2.53; D 2.87; N 3.21; E 2.59; S 2.56
I19: W 2.81; N 2.97; V 3.18; G 3.27; M 2.66; Q 3.42; C 3.2; F 2.53; Y 2.34; P 3.3; K 2.9; D 3.59; L 2.4; A 3.26; T 2.98; R 3.19; S 3.36; H 3.15; E 3.93
K17: W 2; V 2.19; S 2.19; Y 2.14; T 2.27; R 2.39
R22: T 2.38; V 2.32; W 1.71; N 2.82; Y 2.16; C 2.36; L 1.43; K 3.08; E 2.89; P 2.89; G 2.19; I 2.24; Q 2.28; M 2.22; S 2.08; A 2.54; F 2.09; H 2.39; D 2.8
S21: P 2.08; Q 2.95; V 2.65; A 2.48; F 1.91; L 2.14; H 2.53; N 2.98; R 2.58; W 1.61; G 2.29; I 2.61; T 2.15; C 3.33; E 2.85; Y 1.87; M 2.13; K 2.77; D 2.61
K24: Q 2.56; L 1.75; F 1.85; P 2.46; G 2.31; S 3.13; H 2.72; M 1.97; A 2.1; Y 2.05; V 2.05; D 3.02; E 3.45; I 2.12; R 2.42; T 1.98; N 2.54; C 1.55; W 1.92
H20: I 2.09; G 2.55; S 2.37; T 2.12; D 3.33; M 2.1; Q 2.6; W 2.4; P 3.15; L 2.48; K 2.6; V 2.24; R 2.59; E 3.6; F 2.88; C 2.92; N 2.57; Y 2.59; A 2.22

Variants of: B2
Assay: as above
Conditions: c terminus: a fixed tail appended

Protein stability index: each site, then its substitutions
E4: P 3.27; T 2.1
I10: Y 2.29
L20: V 2.87; P 4.79
F17: H 4.86; I 4.84
E2: N 2.32; W 1.81; F 2.14
Q15: N 3.41
R11: W 2.6; E 3.76
K7: I 2.6
A22: P 4.49; D 3.87
I9: D 3.9
C21: P 4.7; T 2.78
T16: M 3.86; D 4.81
V18: H 4.7; N 4.61
D24: P 3.63; F 2.23
A3: M 2.81; V 3; C 2.31

— the supplement of paper PMC10567573
